{
  "source": "paper PMC2191977",
  "about": "(The Journal of Experimental Medicine, 1995)",
  "target": "B7 QDP/LEK (mouse) (UniProt Q00609)",
  "assay": "flow cytometry on cells",
  "data": [
    {"substance": "CTLA4Ig (from UniProt P09793 36-161) (Fc fusion)", "values": [
      {"measurement": "% wild-type B7 binding (normalised to anti-B7 mAb 10.16A.1)", "result": 15, "unit": "%"},
      {"measurement": "MF (mean fluorescence, control subtracted)", "result": 42, "unit": "MF"}
    ]}
  ]
}
